Measurements from PMC7041688 (The Journal of Cell Biology, 2020).
Changes are numbered by the printed parent chain. In names and notes the source's numbering stands.

Columns and labels:
[1] = molecular target: T1, CHC(1–364) (UniProt Q00610 1-364); experiment: crystal structure
T1 sequence (looked up): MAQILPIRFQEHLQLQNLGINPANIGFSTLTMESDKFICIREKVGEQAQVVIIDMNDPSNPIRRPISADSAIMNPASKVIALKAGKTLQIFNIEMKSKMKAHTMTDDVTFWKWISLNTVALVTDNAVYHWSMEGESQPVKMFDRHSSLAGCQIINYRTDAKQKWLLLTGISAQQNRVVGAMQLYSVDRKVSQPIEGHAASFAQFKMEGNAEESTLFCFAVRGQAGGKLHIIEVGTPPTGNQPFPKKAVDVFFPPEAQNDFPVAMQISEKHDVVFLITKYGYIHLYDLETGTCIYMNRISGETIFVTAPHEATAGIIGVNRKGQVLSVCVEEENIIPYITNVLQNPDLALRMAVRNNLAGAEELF

[2] = molecular target: T2, CHC(1–642)-6xHis (UniProt Q00610 1-642); experiment: pull-down
T2 sequence (looked up): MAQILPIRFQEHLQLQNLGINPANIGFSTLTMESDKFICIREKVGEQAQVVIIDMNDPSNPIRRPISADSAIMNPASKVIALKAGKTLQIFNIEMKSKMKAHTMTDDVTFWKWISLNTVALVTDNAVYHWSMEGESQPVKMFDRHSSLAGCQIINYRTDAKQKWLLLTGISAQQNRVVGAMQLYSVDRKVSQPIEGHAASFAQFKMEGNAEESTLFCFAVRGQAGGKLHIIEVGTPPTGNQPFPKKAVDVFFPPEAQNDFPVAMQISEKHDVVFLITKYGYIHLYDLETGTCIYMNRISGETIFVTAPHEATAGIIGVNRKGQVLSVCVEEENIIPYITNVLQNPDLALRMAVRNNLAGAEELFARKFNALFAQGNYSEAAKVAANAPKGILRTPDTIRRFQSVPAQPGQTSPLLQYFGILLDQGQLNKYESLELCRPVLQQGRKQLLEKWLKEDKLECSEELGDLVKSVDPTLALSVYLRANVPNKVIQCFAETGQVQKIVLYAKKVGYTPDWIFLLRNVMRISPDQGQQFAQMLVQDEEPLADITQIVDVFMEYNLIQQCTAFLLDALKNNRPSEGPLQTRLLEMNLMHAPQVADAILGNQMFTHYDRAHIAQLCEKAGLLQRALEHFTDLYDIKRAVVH

[3] = molecular target: T3, GTSE1 (purified recombinant) (human, UniProt Q9NYZ3 1-739); experiment: pull-down
T3 sequence (looked up): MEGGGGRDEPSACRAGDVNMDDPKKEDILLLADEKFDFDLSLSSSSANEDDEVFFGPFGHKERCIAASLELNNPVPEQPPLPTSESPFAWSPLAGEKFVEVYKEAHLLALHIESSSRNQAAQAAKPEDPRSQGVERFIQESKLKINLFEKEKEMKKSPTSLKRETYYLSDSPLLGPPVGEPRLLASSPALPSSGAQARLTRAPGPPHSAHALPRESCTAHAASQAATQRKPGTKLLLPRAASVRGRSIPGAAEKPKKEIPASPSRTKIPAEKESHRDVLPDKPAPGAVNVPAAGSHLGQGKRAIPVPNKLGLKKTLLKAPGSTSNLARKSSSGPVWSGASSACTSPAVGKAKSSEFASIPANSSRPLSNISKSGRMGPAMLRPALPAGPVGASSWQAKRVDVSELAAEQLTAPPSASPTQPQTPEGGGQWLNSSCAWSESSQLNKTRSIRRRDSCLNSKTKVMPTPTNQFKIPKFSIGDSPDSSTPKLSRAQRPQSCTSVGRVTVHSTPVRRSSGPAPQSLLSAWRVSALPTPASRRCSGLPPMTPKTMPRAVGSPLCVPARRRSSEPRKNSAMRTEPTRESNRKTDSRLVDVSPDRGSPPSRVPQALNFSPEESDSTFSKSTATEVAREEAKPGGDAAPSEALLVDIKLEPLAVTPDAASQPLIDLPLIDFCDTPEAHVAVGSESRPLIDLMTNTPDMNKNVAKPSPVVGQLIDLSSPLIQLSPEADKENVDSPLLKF

[4] = molecular target: T4, GTSE1-GFP (purified) (human, UniProt Q9NYZ3 1-739); experiment: pull-down
T4 sequence (looked up): T3 sequence (looked up)

B1: GTSE1-C4 (domain or fragment, human)
chain: GPLGSQPLIDLPLIDFCDTPEAHVAVGSESRPLIDLMTNTPDMNKNVAKPSPVVGQLIDLSSPLIQLSPE
[1]
  binding result: binds

B2: GST-GTSE1-C1 (domain or fragment, human, UniProt Q9NYZ3 652-687, looked up)
chain: PLAVTPDAASQPLIDLPLIDFCDTPEAHVAVGSESR
[2]
  binding result: binds

B3: GST-CHC(1–330) (domain or fragment, UniProt Q00610 1-330, looked up)
chain: MAQILPIRFQEHLQLQNLGINPANIGFSTLTMESDKFICIREKVGEQAQVVIIDMNDPSNPIRRPISADSAIMNPASKVIALKAGKTLQIFNIEMKSKMKAHTMTDDVTFWKWISLNTVALVTDNAVYHWSMEGESQPVKMFDRHSSLAGCQIINYRTDAKQKWLLLTGISAQQNRVVGAMQLYSVDRKVSQPIEGHAASFAQFKMEGNAEESTLFCFAVRGQAGGKLHIIEVGTPPTGNQPFPKKAVDVFFPPEAQNDFPVAMQISEKHDVVFLITKYGYIHLYDLETGTCIYMNRISGETIFVTAPHEATAGIIGVNRKGQVLSVCVE
[3]
  binding result: binds
[4]
  binding result: binds

B4: GST-CHC(1–330) S2M (domain or fragment, UniProt Q00610 1-330, looked up)
chain: B3 chain with Q152L, I154Q
[3]
  binding result: binds

B5: GST-GTSE1-C3 (domain or fragment, human, UniProt Q9NYZ3 693-739, looked up)
chain: MTNTPDMNKNVAKPSPVVGQLIDLSSPLIQLSPEADKENVDSPLLKF
[2]
  binding result: binds

B6: GST-GTSE1-C3 motif E mutant (domain or fragment, human, UniProt Q9NYZ3 693-739, looked up)
chain: B5 chain with L28A, I29A, Q30A
[2]
  binding result: binds

B7: GTSE1-C5 (domain or fragment, human)
chain: GPLGSLAVTPDAASQPLIDLPLIDFCDTPEAHVAVGSESRPLIDLMTNTPDMNKNVAKPSPVVGQLIDLSSP
[1]
  binding result: binds
